The values below come from patent publication US7462701.

The series addresses T1, Gly-Asp-Asp-Asp-Asp-Lys-β-naphthylamide.
T1 chain: GDDDDK

B1: CBM-enterokinase produced transiently in lettuce and purified on cellulose (protein)
chain: MVATAKYGTPVIDGEIDEIWNTTEEIETKAVAMGSLDKNATAKVRVLWDENYLYVLAIVKDPVLNKDNSNPWEQDSVEIFIDENNHKTGYYEDDDAQFRVNYMNEQTFGTGGSPARFKTAVKLIEGGYIVEAAIKWKTIKPTPNTVIGFNIQVNDANEKGQRVGIISWSDPTNNSWRDPSKFGNLRLIK
Regarding B1, the “Enterokinase activity (rate of β-naphthylamine formation)” value was “Enterokinase activity was measured to be 442.7 cps/min/µg compared to blank 0.0001 cps/min/µg”.
